Test results as given in the supplement of paper PMC10598134.
± gives the standard deviation.

Assay: collision cross section of modified peptide (TIMS, N2, iRT-aligned); higher = larger / more extended gas-phase ion
How it was run: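 On a timsTOF Pro/HT (dda-PASEF, nitrogen, ~2.4 mbar), synthetic peptide pools were analysed after a 120-min nanoflow C18 separation at 60 °C and identified in MaxQuant. Three reference ions served for 1/K0 calibration, with run-wise alignment to the median iRT peptide deviation. Collision cross section comes from the Mason-Schamp equation, using the most abundant feature per charge state averaged over 1–3 technical replicates.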

[1] = charge state: 2, modification: Propionyl
[2] = charge state: 2, modification: Succinyl
[3] = charge state: 2, modification: Trimethyl (K)
[4] = charge state: 2, modification: hydroxyisobutyryl
[5] = charge state: 2, modification: Acetyl (K)
[6] = charge state: 2, modification: Biotin
[7] = charge state: 2, modification: Butyryl
[8] = charge state: 3, modification: Butyryl
[9] = charge state: 2, modification: Crotonyl
[10] = charge state: 3, modification: Crotonyl
[11] = charge state: 2, modification: Formyl
[12] = charge state: 2, modification: Glutarylation
[13] = charge state: 2, modification: GlyGly (K)
[14] = charge state: 3, modification: GlyGly (K)
[15] = charge state: 2, modification: Malonyl
[16] = charge state: 2, modification: Methyl (K)
[17] = charge state: 3, modification: Methyl (K)

## ILDLKTGTVK [_ILDLK(Propionyl)TGTVK_]
[1]
  collision cross section: 359.51 ± 0.33 Å²

## ILDLKTGTVK [_ILDLK(Succinyl)TGTVK_]
[2]
  collision cross section: 362.99 ± 0.74 Å²

## ILDLKTGTVK [_ILDLK(Trimethyl (K))TGTVK_]
[3]
  collision cross section: 360.39 ± 1.1 Å²

## ILDLKTGTVK [_ILDLK(hydroxyisobutyryl)TGTVK_]
[4]
  collision cross section: 366.99 ± 1.3 Å²

## INNFSADIKDSK [_INNFSADIK(Acetyl (K))DSK_]
[5]
  collision cross section: 398.34 ± 0.77 Å²

## INNFSADIKDSK [_INNFSADIK(Biotin)DSK_]
[6]
  collision cross section: 419.19 Å²

## INNFSADIKDSK [_INNFSADIK(Butyryl)DSK_]
[7]
  collision cross section: 405.78 ± 0.75 Å²
[8]
  collision cross section: 461.68 ± 3.2 Å²

## INNFSADIKDSK [_INNFSADIK(Crotonyl)DSK_]
[9]
  collision cross section: 405.9 ± 0.28 Å²
[10]
  collision cross section: 458.84 ± 1.6 Å²

## INNFSADIKDSK [_INNFSADIK(Dimethyl (K))DSK_]
Charge state: 2, modification: Dimethyl (K)
  collision cross section: 406.51 ± 0.23 Å²
Charge state: 3, modification: Dimethyl (K)
  collision cross section: 455.06 ± 5.9 Å²

## INNFSADIKDSK [_INNFSADIK(Formyl)DSK_]
[11]
  collision cross section: 395.4 ± 0.83 Å²

## INNFSADIKDSK [_INNFSADIK(Gluratylation)DSK_]
[12]
  collision cross section: 404.4 ± 4.7 Å²
Charge state: 3, modification: Glutarylation
  collision cross section: 469.07 Å²

## INNFSADIKDSK [_INNFSADIK(GlyGly (K))DSK_]
[13]
  collision cross section: 406.34 ± 0.36 Å²
[14]
  collision cross section: 465 ± 2.2 Å²

## INNFSADIKDSK [_INNFSADIK(Malonyl)DSK_]
[15]
  collision cross section: 398.58 ± 0.027 Å²

## INNFSADIKDSK [_INNFSADIK(Methyl (K))DSK_]
[16]
  collision cross section: 401.35 ± 2.2 Å²
[17]
  collision cross section: 451.47 ± 4.8 Å²

## INNFSADIKDSK [_INNFSADIK(Propionyl)DSK_]
[1]
  collision cross section: 401.7 ± 0.42 Å²

## INNFSADIKDSK [_INNFSADIK(Succinyl)DSK_]
[2]
  collision cross section: 402.07 ± 0.25 Å²
Charge state: 3, modification: Succinyl
  collision cross section: 465.51 Å²

## INNFSADIKDSK [_INNFSADIK(Trimethyl (K))DSK_]
[3]
  collision cross section: 411.01 ± 0.61 Å²
Charge state: 3, modification: Trimethyl (K)
  collision cross section: 459.74 ± 1.8 Å²

## INNFSADIKDSK [_INNFSADIK(hydroxyisobutyryl)DSK_]
[4]
  collision cross section: 408.19 ± 0.53 Å²
Charge state: 3, modification: hydroxyisobutyryl
  collision cross section: 466.44 ± 1.1 Å²

## IPAASAAAMNLASAR [_IPAAS(HexNAc (ST))AAAMNLASAR_]
Charge state: 3, modification: HexNAc (ST)
  collision cross section: 504.78 ± 1.3 Å²

## IPAASAAAMNLASAR [_IPAASAAAMNLAS(HexNAc (ST))AR_]
Charge state: 2, modification: HexNAc (ST)
  collision cross section: 422.38 ± 0.62 Å²

## IPPTYQIR [_IPPTY(Nitro (Y))QIR_]
Charge state: 2, modification: Nitro (Y)
  collision cross section: 343.35 ± 0.72 Å²

## IPPTYQIR [_IPPTY(Phospho (Y))QIR_]
Charge state: 2, modification: Phospho (Y)
  collision cross section: 350.25 ± 0.066 Å²

## IPQEKCILQTDVK [_IPQEK(Acetyl (K))CILQTDVK_]
[5]
  collision cross section: 431.12 ± 1.2 Å²

## IPQEKCILQTDVK [_IPQEK(Butyryl)CILQTDVK_]
[7]
  collision cross section: 436.84 ± 0.53 Å²
[8]
  collision cross section: 487.47 ± 3.3 Å²

## IPQEKCILQTDVK [_IPQEK(Crotonyl)CILQTDVK_]
[9]
  collision cross section: 433.54 Å²

## IPQEKCILQTDVK [_IPQEK(Formyl)CILQTDVK_]
[11]
  collision cross section: 427.41 Å²

## IPQEKCILQTDVK [_IPQEK(Gluratylation)CILQTDVK_]
[12]
  collision cross section: 437.23 ± 0.96 Å²

## IPQEKCILQTDVK [_IPQEK(GlyGly (K))CILQTDVK_]
[13]
  collision cross section: 446.01 ± 0.95 Å²
[14]
  collision cross section: 482.94 ± 1.1 Å²

## IPQEKCILQTDVK [_IPQEK(Malonyl)CILQTDVK_]
[15]
  collision cross section: 431.57 Å²

## IPQEKCILQTDVK [_IPQEK(Methyl (K))CILQTDVK_]
[16]
  collision cross section: 433.64 ± 1.1 Å²
[17]
  collision cross section: 464.28 ± 2.7 Å²

## IPQEKCILQTDVK [_IPQEK(Succinyl)CILQTDVK_]
[2]
  collision cross section: 432.46 ± 0.51 Å²

## IPQEKCILQTDVK [_IPQEK(hydroxyisobutyryl)CILQTDVK_]
[4]
  collision cross section: 438.91 ± 0.79 Å²

## IQNGAQGIRFIYTR [_IQNGAQGIR(Citrullination (R))FIYTR_]
Charge state: 3, modification: Citrullination (R)
  collision cross section: 506.23 Å²

## IQQELQTAKK [_IQQELQTAK(Acetyl (K))K_]
[5]
  collision cross section: 374.24 ± 0.38 Å²
Charge state: 3, modification: Acetyl (K)
  collision cross section: 435.9 ± 0.91 Å²

## IQQELQTAKK [_IQQELQTAK(Biotin)K_]
[6]
  collision cross section: 397.29 ± 2.2 Å²
Charge state: 3, modification: Biotin
  collision cross section: 468.38 ± 0.34 Å²

## IQQELQTAKK [_IQQELQTAK(Butyryl)K_]
[7]
  collision cross section: 385.32 ± 2.2 Å²
[8]
  collision cross section: 441.3 Å²

## IQQELQTAKK [_IQQELQTAK(Crotonyl)K_]
[9]
  collision cross section: 386.16 ± 0.79 Å²
[10]
  collision cross section: 431.2 ± 1.6 Å²
